Results from IntAct's records for PubMed 21370995.

Target: kcru_mouse Ckmt1 (UniProt P30275)

## Leucine-rich repeat serine/threonine-protein kinase 2 (Homo sapiens), Q5S007 G2019S
  effect of a mutation on the interaction: increasing interaction
